According to publication PMC4820785 (Nature Communications, 2016):

Target: T1, Ssa1 (UniProt P10591 1-642)
T1 construct: also called a member of the Hsp70 family (Ssa1); Saa1
Test: ThT aggregation kinetics, global
Conditions: both partners purified

T1 sequence (P10591 whole entry): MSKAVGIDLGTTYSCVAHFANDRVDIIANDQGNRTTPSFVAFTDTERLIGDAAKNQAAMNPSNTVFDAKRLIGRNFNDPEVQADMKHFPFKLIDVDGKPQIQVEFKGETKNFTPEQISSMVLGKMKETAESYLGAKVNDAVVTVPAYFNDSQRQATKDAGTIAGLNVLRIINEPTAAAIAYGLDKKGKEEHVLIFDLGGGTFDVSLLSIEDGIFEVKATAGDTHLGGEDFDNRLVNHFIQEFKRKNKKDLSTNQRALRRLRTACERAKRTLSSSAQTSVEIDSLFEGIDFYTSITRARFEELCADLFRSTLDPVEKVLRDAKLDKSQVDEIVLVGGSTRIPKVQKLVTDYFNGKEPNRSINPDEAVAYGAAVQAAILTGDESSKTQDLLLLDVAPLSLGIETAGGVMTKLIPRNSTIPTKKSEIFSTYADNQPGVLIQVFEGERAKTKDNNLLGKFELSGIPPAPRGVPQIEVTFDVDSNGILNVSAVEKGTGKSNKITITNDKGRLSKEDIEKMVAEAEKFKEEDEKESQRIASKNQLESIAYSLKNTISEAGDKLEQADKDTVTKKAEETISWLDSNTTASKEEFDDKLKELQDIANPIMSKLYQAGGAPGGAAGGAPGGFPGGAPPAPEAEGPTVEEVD

B1: yeast prion protein Ure2p (natural protein, UniProt P23202 1-354, looked up)
chain: MMNNNGNQVSNLSNALRQVNIGNRNSNTTTDQSNINFEFSTGVNNNNNNNSSSNNNNVQNNNSGRNGSQNNDNENNIKNTLEQHRQQQQAFSDMSHVEYSRITKFFQEQPLEGYTLFSHRSAPNGFKVAIVLSELGFHYNTIFLDFNLGEHRAPEFVSVNPNARVPALIDHGMDNLSIWESGAILLHLVNKYYKETGNPLLWSDDLADQSQINAWLFFQTSGHAPMIGQALHFRYFHSQKIASAVERYTDEVRRVYGVVEMALAERREALVMELDTENAAAYSAGTTPMSQSRFFDYPVWLVGDKLTIADLAFVPWNNVVDRIGINIKIEFPEVYKWTKHMMRRPAVIKALRGE
notes: also called prion Ure2p
  Ka: 300000 M⁻¹
